These results are taken from publication PMC9307851.

For the data set, the target named is DNMT3B MTase domain WT (human, UniProt Q9UBC3 569-853). The experiment in a line: ITC; 5 C; ITC: 20 mM Tris-HCl pH 7.2, 200 mM NaCl, 5% glycerol, 2 mM b-mercaptoethanol, 5 C; EMSA: 50 mM Tris-HCl pH 8.0, 25% glycerol, 8% glucose, 2 mM DTT, 0.1 mg/mL BSA, 30 min, gel in 0.5x TBE at 4 C. The settings on record: protein: recombinant; tags: His6-MBP removed by TEV; (only upper strand given). (In ITC the heat of successive injections is recorded.)

B1: 24-mer DNA duplex (GAC)8 (dsDNA)
DNA 1: GACGACGACGACGACGACGACGAC
DNA 2: GTCGTCGTCGTCGTCGTCGTCGTC
The term Kd denotes the concentration at which binding is half-saturated. For B1, the Kd is 4 ± 0.1 µM.
